In patent publication US20180009879A1 one finds concentration reducing HSV cytopathic effect by 50% (IIF assay) data, which are given here for one molecule.

Assay [1] has as its target HSV-1 (HF strain, VR-260 ATCC): unidentified viral antigen on virions or infected VERO-E6 cells (Herpes simplex virus 1). The experiment in a line: cell-based or functional assay.
In assay [2] the target is HSV-2 (MS strain, VR-540 ATCC): unidentified viral antigen on virions or infected VERO-E6 cells (Herpes simplex virus 2). The experiment in a line: cell-based or functional assay.

Some results are limits rather than exact numbers.

B1: Fab Ex2 (IgG1 Fab format) (Fab, V domains shown)
VH: LESGGGVVQPGRSLRLSCAASGFTFTTFAMHWVRQAPGKGLEWLAFISYDGSNKYYADSVKGRFTISRDNSKNTLYLQMNSLRAEDTSIYYCAREVWNYADYWGQGALVTVSS
VL: ELTQSPGTLSSSPGHRATLSCKASAPLGSNHMAWYQQKPGQAPRLLIYGASTRATGVPARFTGSGSGTDFTLTISSLQPEDFATYYCQQANSFPRTFGQGTKVEIK
For the molecule B1, the concentration reducing HSV cytopathic effect by 50% (IIF assay) in assay [1] and in assay [2] was less than 5 µg/mL throughout.
